Measured values: US20190055314A1 (ADAGENE, published 2019)
Where a chain is given by its changes, count along the chain named.

B1: AG10059 (antibody, human IgG4 S228P, kappa, V domains shown)
VH: EVQLVESGGGLVQPGGSLRLSCAASGYSITSGHYWAWIRQAPGKGLEWVSSISGYGSTTYYADSVKGRFTISRDNSKNTLYLQLNSLRAEDTAVYYCARGGSDAVLGDWFAYWGQGTLVTVSS
VL: DIQLTQSPSSLSASVGDRVTITCRASQGIGSFLAWYQQKPGKAPKLLIYDASNLETGVPSRFSGSGSGTDFTLTISSLQPEDFATYYCQQGYYLWTFGQGTKVEIKR
B2: AG10058 (antibody, human IgG4 S228P, kappa, V domains shown)
VH: EVQLVESGGGLVQPGGSLRLSCAASGFSLSTSGVGVGWIRQAPGKGLEWLALIDWDDDKYYSPSLKSRLTISRDNSKNTLYLQLNSLRAEDTAVYYCARGGSDTVLGDWFAYWGQGTLVTVSS
VL: B1 VL with G28S, I29V, G30S, S31P, F32Y, N53S, T56S, Y93S

What was measured:
[1] = target: T1, full-length human CD137 on the cell surface (human, UniProt Q07011 18-255); assay: flow cytometry ligand competition, HEK293F cells with human CD137, antibody 100 nM then 33 nM biotinylated CD137L, streptavidin-Alexa 647
T1 construct: also called Human WT

[2] = target: T2, monkey CD137 protein (Biacore) (cynomolgus monkey, UniProt Q07011 24-179 (human entry), limits assumed); assay: SPR Biacore, IgG captured
T2 construct: Construct used as SPR analyte not described; also called Cyno CD137
T2 chain: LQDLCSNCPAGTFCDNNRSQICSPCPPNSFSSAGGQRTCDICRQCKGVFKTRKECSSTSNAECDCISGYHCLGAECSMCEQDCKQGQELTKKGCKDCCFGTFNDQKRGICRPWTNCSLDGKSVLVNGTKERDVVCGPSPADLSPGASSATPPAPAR

[3] = target: T1, full-length human CD137 on the cell …; assay: cell-based or functional assay
[4] = target: T3, full-length monkey CD137 on the cell surface (cynomolgus monkey, UniProt Q07011 24-179 (human entry)); assay: cell-based or functional assay
T3 chain: T2 chain

[5] = target: T1, full-length human CD137 on the cell …; assay: flow cytometry, HEK293F
[6] = target: T3, full-length monkey CD137 on the cell …; assay: flow cytometry, HEK293F
[7] = target: T1, full-length human CD137 on the cell …; assay: flow cytometry, HEK293F cells expressing CD137 or mutant [Cont.]
[8] = target: T4, full-length mouse CD137 on the cell surface (mouse, UniProt P20334 24-178); assay: as above
T4 sequence: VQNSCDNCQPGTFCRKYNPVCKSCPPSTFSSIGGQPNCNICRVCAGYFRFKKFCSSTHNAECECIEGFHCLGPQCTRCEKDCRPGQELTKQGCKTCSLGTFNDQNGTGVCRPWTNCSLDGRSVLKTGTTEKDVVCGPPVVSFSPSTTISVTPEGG

[9] = target: T3, full-length monkey CD137 on the cell …; assay: flow cytometry, PMA/ionomycin-activated monkey T cells, antibody 100 nM
[10] = target: T5, Hu_GT150AA (human, UniProt Q07011 18-255); assay: flow cytometry, HEK293F cells expressing CD137 or mutant [Cont.]
T5 construct: On HEK293F

[11] = target: T6, Hu_PW135AA (human, UniProt Q07011 18-255); assay: as above
T6 construct: On HEK293F

[12] = target: T7, Hu_FN125AA (human, UniProt Q07011 18-255); assay: as above
T7 construct: On HEK293F

[13] = target: T8, Hu_CRD1-CRD2 (human, UniProt Q07011 24-86, limits assumed); assay: flow cytometry, yeast display [Cont.]
T8 construct: also called two CRD units (CRD1-CRD2) of human CD137

[14] = target: T9, Hu_CRD2-CRD3 (human, UniProt Q07011 46-118, limits assumed); assay: flow cytometry, yeast display [Cont.]
T9 construct: also called two CRD units (CRD2-CRD3) of human CD137

[15] = target: T10, Hu_CRD3 (human, limits assumed); assay: flow cytometry, yeast display [Cont.]
T10 construct: also called human CD137 CRD3
T10 chain: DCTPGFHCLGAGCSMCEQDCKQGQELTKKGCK

[16] = target: T11, Hu_CRD4 (human, UniProt Q07011 119-159, limits assumed); assay: flow cytometry, yeast display [Cont.]
T11 construct: also called human CD137 CRD4
T11 chain: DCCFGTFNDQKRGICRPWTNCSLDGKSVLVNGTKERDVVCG

[17] = target: T12, Hu_FSS53AAA (human, UniProt Q07011 18-255); assay: flow cytometry, HEK293F cells expressing CD137 or mutant [Cont.]
T12 construct: On HEK293F
T12 chain: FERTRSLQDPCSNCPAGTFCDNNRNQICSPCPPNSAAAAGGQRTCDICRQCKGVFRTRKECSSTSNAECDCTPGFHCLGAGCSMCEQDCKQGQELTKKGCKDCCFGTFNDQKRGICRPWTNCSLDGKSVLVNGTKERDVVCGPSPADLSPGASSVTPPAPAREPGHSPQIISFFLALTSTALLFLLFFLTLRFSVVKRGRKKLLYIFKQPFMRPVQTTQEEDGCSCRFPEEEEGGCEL

[18] = target: T13, Hu_FH92AA (human, UniProt Q07011 18-255); assay: as above
T13 construct: On HEK293F

[19] = target: T14, Hu_GTF34AAA (human, UniProt Q07011 18-255); assay: as above
T14 construct: On HEK293F; also called GFT34AAA
T14 chain: T12 chain with G17A, T18A, F19A, A36F, A37S, A38S

[20] = target: T1, full-length human CD137 on the cell …; assay: flow cytometry, PMA/ionomycin-activated human T cells, antibody 100 nM

T1 sequence (Q07011 18-255): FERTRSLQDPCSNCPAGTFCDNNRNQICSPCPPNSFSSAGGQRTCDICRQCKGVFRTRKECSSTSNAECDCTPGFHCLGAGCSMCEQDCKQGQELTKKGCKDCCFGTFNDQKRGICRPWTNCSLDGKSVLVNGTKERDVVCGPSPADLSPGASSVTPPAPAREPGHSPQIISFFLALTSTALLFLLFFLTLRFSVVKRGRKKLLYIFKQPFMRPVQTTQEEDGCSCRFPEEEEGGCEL
T7 sequence (Q07011 18-255 F125A/N126A): as the sequence (Q07011 18-255) above, with F108A, N109A counted along it
T6 sequence (Q07011 18-255 P135A/W136A): as the sequence (Q07011 18-255) above, with P118A, W119A counted along it
T5 sequence (Q07011 18-255 G150A/T151A): as the sequence (Q07011 18-255) above, with G133A, T134A counted along it

Binder | % in upper right quadrant (CD137L signal) [1] [%] | Median (APC signal of bound biotinylated CD137L) [1] | Kd [2] [nM] | NFκB luciferase reporter, 293T cells with human CD137: EC50 (read off the curve) [3] [nM] | NFκB luciferase reporter, 293T cells with monkey CD137: EC50 (read off the curve) [4] [nM] | Kd [5] [nM] | Kd [6] [nM] | % in upper right quadrant [7] [%] | % in upper right quadrant [8] [%] | % of cells positive for antibody binding [9] [%] | Mean [10] | Mean [11] | binding result [12] | % in upper right quadrant [13] [%] | Mean [13] | % in upper right quadrant [14] [%] | Mean [14] | % in upper right quadrant [15] [%] | Mean [15] | % in upper right quadrant [16] [%] | other results
B1 | 52.9 | 46500 | 23.1 | ~10 | ~1 | 5 | 2.6 | 34.7 | 0.041 | 8.1 | 13300 | 31600 | binds | 0.31 | 12000 | 0.15 | 7460 | 0.25 | 6200 | 0.17 | Mean [16]: 16100; Mean [17]: 720; binding result [17]: no binding (tested: 100 nM (as in Example 5)); binding result [18]: no binding (tested: 100 nM (as in Example 5)); Mean [19]: 893; binding result [19]: no binding (tested: 100 nM (as in Example 5)); % of cells positive for antibody binding [20]: 45.1%
B2 | 37.6 | 22300 | 9.3 | ~5 | ~1 | 1.8 | 2 | 27.3 | 31.1 | 9.8 | 12100 | 24300 | binds | 0.18 | 3680 | 0.11 | 14600 | 0.15 | 10400 | 0.15 | Mean [16]: 16100; Mean [17]: 778; binding result [17]: no binding (tested: 100 nM (as in Example 5)); binding result [18]: no binding (tested: 100 nM (as in Example 5)); Mean [19]: 878; binding result [19]: no binding (tested: 100 nM (as in Example 5)); % of cells positive for antibody binding [20]: 52%
